The term EC50 denotes the midpoint of the concentration-response curve.

Assay [1] has as its target SC/09 H1N1 HA protein (A/Sichuan/01/2009) (influenza A virus A/Sichuan/01/2009 …). Briefly: ELISA. (ELISA stands for enzyme-linked immunosorbent assay.)
Assay [2] addresses A/Hong Kong/01/1968 (H3N2) HA (influenza A virus A/Hong Kong/01/1968 …, UniProt Q91MA7). The assay can be described thus: ELISA.

B1: 28-12 (antibody, V domains shown)
VH: EVQLVESGGGLVQPGGSLRLSCAASGFTFSTYNMNWVRQAPGKGLEWLSYISTSSNTIYYADSVKGRFTISRDNAKNSLFLQMNSLRDEDTAVYYCARDRGCSSTNCYVVGYYFYGMDVWGQGTTVTVSS
VL: DIQMTQSPSSVSASVGDRVTITCRASQGISSYLAWYQLKPGRAPKLLIYGATRLQSGVPSRFSGSGSGTDFTLTISGLQPEDFATYHCQQADSFPLTFGQGTRLEIK
For the molecule B1, the EC50 in assay [1] is 0.0647 µg/mL; in assay [2] it was 0.0754 µg/mL.
